This is an account of results in US20160304578A1 (XYPHOS BIOSCIENCES, published 2016).

As a reminder, the IC50 is the concentration that gives 50% inhibition. As a reminder, the koff is the first-order rate constant of dissociation. Higher therefore signals fast dissociation. As a reminder, the kon is the rate constant with which the complex forms. Lower therefore signals slow association. One may read the Kd as a measure of binding affinity in units of concentration. Read a high Kd as lower affinity.

Sequences and labels used below:
B1: WT α1-α2 soluble MICA protein (ligand, UniProt Q29983 24-299, looked up)
chain: EPHSLRYNLTVLSWDGSVQSGFLTEVHLDGQPFLRCDRQKCRAKPQGQWAEDVLGNKTWDRETRDLTGNGKDLRMTLAHIKDQKEGLHSLQEIRVCEIHEDNSTRSSQHFYYDGELFLSQNLETKEWTMPQSSRAQTLAMNVRNFLKEDAMKTKTHYHAMHADCLQELRRYLKSGVVLRRTVPPMVNVTRSEASEGNITVTCRASGFYPWNITLSWRQDGVSLSHDTQQWGDVLPDGNGTYQTWVATRICQGEEQRFTCYMEHSGNHSTHPVPSGK
notes: also called WT MICA; WT NKG2DL
B2: biotinylated human NKG2D (receptor, UniProt P26718 78-216, looked up)
chain: FLNSLFNQEVQIPLTESYCGPCPKNWICYKNNCYQFFDESKNWYESQASCMSQNASLLKVYSKEDQDLLKLVKSYHWMGLVHIPTNGSWQWEDGSILSPNLLTIIEMQKGDCALYASSFKGYIENCSTPNTYICMQRTV
modifications: biotinylated (site not stated)
notes: also called recombinant biotinylated NKG2D
B3: α1-α2 variant 48 (designed binder)
chain: EPHSLRYNLTVLSWDGSVQSGFLTEVHLDGQPFLRCDRQKCRAKPQGQWAEDVLGNKTWDRETRDLTGWGKDLRMTLAHIKDQKEGLHSLQEIRVCEIHEDNSTRSSQHFYYDGELFLSQNLETLEWTMPQSSRAQTLAMNVRNFLKEDAMATDTHYIAMRADCLAELRRYLKSGVVLRRTVPPMVQVTRSEASGGSGDRVTITCRASQDVSTAVAWYQQKPGKAPKLLIYSASFLYSGVPSRFSGSGSGTDFTLTISSLQPEDFATYYCQQSYTTPPTFGQGTKVEIKGGSSRSSSSGGGGSGGGGEVQLVESGGGLVQPGGSLRLSCAASGFTFTSTGISWVRQAPGKGLEWVGRIYPTNGSTNYADSVKGRFTISADTSKNTAYLQMNSLRAEDTAVYYCARTYGIYDLYVDYTEYVMDYWGQGTLVTVSSGGSSRSSSSGGGGSGGGGDIQMTQSPSSLSASGGSGQITVTCRASGFYPWNITLSWRQDGVSLSHDTQQWGDVLPDGQGTYQTWVATRISQGEEQRFTCYMEHSGQHSTHPVPSGKGSHHHHHH
notes: Expressed in HEK293 (Expi293)

The target in one test is T1, human NKG2D-Fc (human, UniProt P26718 78-216, limits assumed).
T1 construct: not shown: Fc part
T1 sequence (looked up): B2 chain
As to the kind of experiment: competition ELISA: inhibits 2 nM human NKG2D-Fc binding to plate-coated WT sMICA.

Test [1] addresses B1. As to the kind of experiment: biolayer interferometry (Octet), surface-coated biotinylated human NKG2D, 100 nM protein. (In general: In BLI a coated tip is dipped into the sample, and binding shifts an interference pattern.)
The target of test [2] is B1. Description: biolayer interferometry (Octet), Kd = kOFF/kON.
Test [3] has as its target B2. As to the kind of experiment: biolayer interferometry (Octet), biotinylated human NKG2D; the reference is not named.
Description: (§1) In order to characterize the NKG2D binding affinities, both the on-rates and off-rates for the three α1-α2 variant NKG2DLs binding to surface-coated biotinylated human NKG2D were measured using biolayer interferometry (Octet). Binding titrations were performed for each protein using a titration range of 1-100 nM, and the kinetic data were fitted to obtain on-rates, off-rates, and equilibrium binding constants.
In test [4] the target is B2. As to the kind of experiment: biolayer interferometry (Octet), surface-coated biotinylated human NKG2D, titration 1-100 nM.
Description: as §1
The target in test [5] is B2. Description: biolayer interferometry (Octet), Kd = kOFF/kON.
Description: as §1

Excerpt for human NKG2D-Fc: Using a competitive binding ELISA, we determined the relative NKG2D binding affinities of the 4 modified α1-α2 variants.

B1 came in with an IC50 in the test with human NKG2D-Fc of 19.4 nM. This counts as double-digit nanomolar.

B2: in test [1], the koff was 0.0018 s⁻¹ and the kon is 130000 M⁻¹ s⁻¹. Further, binding in test [2] was characterised by a dissociation constant (Kd) of 13.8 nM.

As to B3, in the test with biotinylated human NKG2D [3], the “fold reduction in NKG2D binding affinity” value was determined as 250 fold. Further, in the test with biotinylated human NKG2D [4], the koff came out at 0.003 s⁻¹ and the kon came out at 200000 M⁻¹ s⁻¹. Moreover, binding with biotinylated human NKG2D [5] was put at a Kd of 15 nM.
